The values that follow come from article PMC8319186, “Mitochondrial adaptor TRAK2 activates and functionally links opposing kinesin and dynein motors” (Nature Communications, 2021).

Experiment [1] concerns the target dynein heavy chain (endogenous, COS-7). Nature of the experiment: co-immunoprecipitation (Halo antibody IP, western blot quantification). Conditions: extracts from COS-7 cells transfected with Myc-KIF5B and Halo-tagged constructs; mean ± s.d. from three independent experiments; parent: est. 0.21; read off a plot.
A further experiment addresses T1, Myc-KIF5C-Halo (mouse, UniProt P28738 1-956).
T1 sequence (looked up): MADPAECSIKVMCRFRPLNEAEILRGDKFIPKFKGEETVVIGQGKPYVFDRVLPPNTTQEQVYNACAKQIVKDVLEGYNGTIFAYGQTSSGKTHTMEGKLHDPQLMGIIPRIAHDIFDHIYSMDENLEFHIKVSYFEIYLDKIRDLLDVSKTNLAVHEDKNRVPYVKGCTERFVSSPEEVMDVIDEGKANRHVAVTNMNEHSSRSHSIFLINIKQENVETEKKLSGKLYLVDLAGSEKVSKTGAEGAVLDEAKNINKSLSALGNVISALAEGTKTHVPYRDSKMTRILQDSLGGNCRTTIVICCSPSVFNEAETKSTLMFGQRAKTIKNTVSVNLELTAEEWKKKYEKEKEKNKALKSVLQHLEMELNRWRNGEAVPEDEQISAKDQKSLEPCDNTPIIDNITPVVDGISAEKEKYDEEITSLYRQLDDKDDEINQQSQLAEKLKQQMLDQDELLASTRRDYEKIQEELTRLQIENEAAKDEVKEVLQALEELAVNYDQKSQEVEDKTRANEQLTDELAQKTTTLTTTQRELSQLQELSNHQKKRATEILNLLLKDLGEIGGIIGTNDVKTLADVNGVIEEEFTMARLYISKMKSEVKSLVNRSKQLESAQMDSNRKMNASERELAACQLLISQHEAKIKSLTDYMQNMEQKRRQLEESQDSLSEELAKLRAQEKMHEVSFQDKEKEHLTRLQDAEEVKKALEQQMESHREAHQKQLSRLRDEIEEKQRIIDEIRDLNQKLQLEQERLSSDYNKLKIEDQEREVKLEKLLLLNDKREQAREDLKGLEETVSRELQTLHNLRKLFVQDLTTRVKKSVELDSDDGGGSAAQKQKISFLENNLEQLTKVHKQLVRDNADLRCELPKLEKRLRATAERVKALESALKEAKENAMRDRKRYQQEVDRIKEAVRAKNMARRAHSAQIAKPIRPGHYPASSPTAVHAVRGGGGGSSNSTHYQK
The experiment is described as follows: cell-based or functional assay.

As for “Halo-TRAK2 (from UniProt O60296) A129V; A130V”, the response in experiment [1] came to 0.08.
For the molecule Halo-TRAK2 (from UniProt O60296) I132D, the response in experiment [1] came out at 0.07.

B1: HA-TRAK2 (natural protein, UniProt O60296 1-914, looked up)
chain: MSQSQNAIFTSPTGEENLMNSNHRDSESITDVCSNEDLPEVELVSLLEEQLPQYRLKVDTLFLYENQDWTQSPHQRQHASDALSPVLAEETFRYMILGTDRVEQMTKTYNDIDMVTHLLAERDRDLELAARIGQALLKRNHVLSEQNESLEEQLGQAFDQVNQLQHELCKKDELLRIVSIASEESETDSSCSTPLRFNESFSLSQGLLQLEMLQEKLKELEEENMALRSKACHIKTETVTYEEKEQQLVSDCVKELRETNAQMSRMTEELSGKSDELIRYQEELSSLLSQIVDLQHKLKEHVIEKEELKLHLQASKDAQRQLTMELHELQDRNMECLGMLHESQEEIKELRSRSGPTAHLYFSQSYGAFTGESLAAEIEGTMRKKLSLDEESSLFKQKAQQKRVFDTVRIANDTRGRSISFPALLPIPGSNRSSVIMTAKPFESGLQQTEDKSLLNQGSSSEEVAGSSQKMGQPGPSGDSDLATALHRLSLRRQNYLSEKQFFAEEWQRKIQVLADQKEGVSGCVTPTESLASLCTTQSEITDLSSASCLRGFMPEKLQIVKPLEGSQTLYHWQQLAQPNLGTILDPRPGVITKGFTQLPGDAIYHISDLEEDEEEGITFQVQQPLEVEEKLSTSKPVTGIFLPPITSAGGPVTVATANPGKCLSCTNSTFTFTTCRILHPSDITQVTPSSGFPSLSCGSSGSSSSNTAVNSPALSYRLSIGESITNRRDSTTTFSSTMSLAKLLQERGISAKVYHSPISENPLQPLPKSLAIPSTPPNSPSHSPCPSPLPFEPRVHLSENFLASRPAETFLQEMYGLRPSRNPPDVGQLKMNLVDRLKRLGIARVVKNPGAQENGRCQEAEIGPQKPDSAVYLNSGSSLLGGLRRNQSLPVIMGSFAAPVCTSSPKMGVLKED
Turning to B1, the “frequency of KIF5C runs along dynamic microtubules (single-molecule TIRF of COS-7 lysate) with against without exogenous HA-TRAK2” value with Myc-KIF5C-Halo was > 3 fold.
